Source: PMC8934646, “The intrinsically disordered TSSC4 protein acts as a helicase inhibitor, placeholder and multi-interaction coordinator during snRNP assembly and recycling” (Nucleic Acids Research, 2022)

Target: T1, SNRNP200 helicase region (SNRNP200^HR) (human, UniProt O75643 395-2129)
T1 construct: human SNRNP200 helicase region, residues 395-2129
Experiment: SEC; competitive binding: 5 μM pre-formed SNRNP200^HR-FBP21^200–376 or SNRNP200^HR-C9ORF78 complex incubated with 5 μM GST-TSSC4 in 50 μl, 10 min on ice, then analytical SEC as in a1
Details: both partners purified

T1 sequence (O75643 395-2129): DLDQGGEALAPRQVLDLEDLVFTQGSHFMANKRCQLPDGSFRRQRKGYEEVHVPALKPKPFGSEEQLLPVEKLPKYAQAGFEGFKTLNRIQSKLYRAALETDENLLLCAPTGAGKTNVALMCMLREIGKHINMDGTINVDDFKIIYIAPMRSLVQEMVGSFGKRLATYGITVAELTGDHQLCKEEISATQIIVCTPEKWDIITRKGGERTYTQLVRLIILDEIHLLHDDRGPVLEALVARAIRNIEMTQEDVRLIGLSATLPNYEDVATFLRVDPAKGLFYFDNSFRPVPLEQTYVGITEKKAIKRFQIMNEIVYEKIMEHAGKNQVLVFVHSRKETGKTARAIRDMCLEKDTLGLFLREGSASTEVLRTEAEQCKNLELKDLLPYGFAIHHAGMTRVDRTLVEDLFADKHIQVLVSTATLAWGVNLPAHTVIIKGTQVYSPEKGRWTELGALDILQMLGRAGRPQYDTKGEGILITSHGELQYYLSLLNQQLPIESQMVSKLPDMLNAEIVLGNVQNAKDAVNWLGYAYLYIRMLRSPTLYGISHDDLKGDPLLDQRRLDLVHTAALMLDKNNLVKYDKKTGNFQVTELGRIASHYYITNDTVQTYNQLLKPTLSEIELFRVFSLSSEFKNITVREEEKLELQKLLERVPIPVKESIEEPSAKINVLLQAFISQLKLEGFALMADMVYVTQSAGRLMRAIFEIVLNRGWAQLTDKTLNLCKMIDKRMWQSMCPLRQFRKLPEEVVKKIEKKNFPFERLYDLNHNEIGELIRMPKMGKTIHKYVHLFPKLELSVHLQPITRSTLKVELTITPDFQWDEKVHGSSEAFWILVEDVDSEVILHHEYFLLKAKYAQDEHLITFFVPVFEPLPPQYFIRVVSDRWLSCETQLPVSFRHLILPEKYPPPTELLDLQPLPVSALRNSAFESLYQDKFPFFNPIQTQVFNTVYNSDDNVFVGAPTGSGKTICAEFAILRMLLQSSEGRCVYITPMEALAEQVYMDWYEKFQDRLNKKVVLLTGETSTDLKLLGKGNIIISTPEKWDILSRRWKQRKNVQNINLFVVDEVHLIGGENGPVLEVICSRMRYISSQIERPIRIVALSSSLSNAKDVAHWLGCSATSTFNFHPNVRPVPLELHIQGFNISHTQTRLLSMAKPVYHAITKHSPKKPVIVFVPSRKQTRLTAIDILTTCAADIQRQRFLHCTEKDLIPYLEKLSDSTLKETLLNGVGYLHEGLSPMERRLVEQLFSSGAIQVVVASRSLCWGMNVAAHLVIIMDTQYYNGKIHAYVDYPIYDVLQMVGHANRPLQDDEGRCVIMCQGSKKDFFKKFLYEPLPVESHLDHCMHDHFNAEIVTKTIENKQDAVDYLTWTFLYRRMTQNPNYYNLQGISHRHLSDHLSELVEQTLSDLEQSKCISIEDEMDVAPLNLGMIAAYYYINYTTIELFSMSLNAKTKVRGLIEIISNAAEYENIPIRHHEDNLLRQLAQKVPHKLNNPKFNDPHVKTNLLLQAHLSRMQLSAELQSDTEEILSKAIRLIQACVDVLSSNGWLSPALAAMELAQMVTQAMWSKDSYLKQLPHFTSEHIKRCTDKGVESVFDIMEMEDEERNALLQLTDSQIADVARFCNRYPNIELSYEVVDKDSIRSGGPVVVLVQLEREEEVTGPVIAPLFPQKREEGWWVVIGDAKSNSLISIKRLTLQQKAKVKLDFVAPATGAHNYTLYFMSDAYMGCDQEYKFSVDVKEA

binding result: binds
B1: C-terminal fragment of FBP21 (FBP21^200–376) (domain or fragment, human, UniProt O75554 200-376, looked up)
chain: HTSDLPSSKVNENSLGTLDESKSSDSHSDSDGEQEAEEGGVSTETEKPKIKFKEKNKNSDGGSDPETQKEKSIQKQNSLGSNEEKSKTLKKSNPYGEWQEIKQEVESHEEVDLELPSTENEYVSTSEADGGGEPKVVFKEKTVTSLGVMADGVAPVFKKRRTENGKSRNLRQRGDDQ
